Where only a bound is given, the exact number is not on record here.

A word on the Kd: it is a measure of binding affinity in units of concentration. In general, kon refers to a measure of how fast the partners come together. What is called koff is the first-order rate constant of dissociation.

Experiment [1] has as its target N2 neuraminidase from H3N2 A/Tanzania/205/2010 (Influenza A virus A/Tanzania/205/2010 (H3N2)).
Experiment [2] deals with N9 Hong Kong/56/2015 (Influenza A virus). Kind of experiment: SPR (Biacore), NA on anti-Avi chip, 1:1 model; NA code N9. A general note: SPR reads the build-up and loss of mass on a sensor chip optically.
The target in experiment [3] is A/N1 Vietnam/1203/2004 (Influenza A virus). The experiment is described as follows: SPR (Biacore), NA on anti-Avi chip, 1:1 model; NA code NA-3.
In experiment [4] the target is B/Perth/211/2011 (Influenza B virus). The experiment is described as follows: SPR (Biacore), NA on anti-Avi chip, 1:1 model; NA code BNA-2.
The target of experiment [5] is B/Massachusetts/02/2012(Yamagata) (Influenza B virus). The experiment is described as follows: SPR (Biacore), NA on anti-Avi chip, 1:1 model; NA code BNA-3.
Experiment [6] deals with B/Brisbane/602008 or 33/2008 (Victoria) (Influenza B virus). The experiment is described as follows: SPR (Biacore), NA on anti-Avi chip, 1:1 model; NA code BNA-6.
Experiment [7] deals with IBV neuraminidase from B/Malaysia/2506/2004 (Victoria) (Influenza B virus B/Malaysia/2506/2004). Kind of experiment: SPR (Biacore), NA on anti-Avi chip, 1:1 model; NA code BNA-7.
For experiment [8], the target named is N2 A/Switzerland/8060/2017 (82-469) (Influenza A virus). The experiment is described as follows: SPR (Biacore), NA on anti-Avi chip, 1:1 model; NA code NA-16 (+glyc245).
Experiment [9] addresses N2 A/Hong_Kong/2671/2019 (82-469) (Influenza A virus). Kind of experiment: SPR (Biacore), NA on anti-Avi chip, 1:1 model; NA code NA-18 (+glyc245).
Experiment [10] has as its target N2 neuraminidase from A/South Australia/34/2019 (Influenza A virus A/South Australia/34/2019). Kind of experiment: SPR (Biacore), NA on anti-Avi chip, 1:1 model; NA code NA-17, 82-469 (+glyc245).
The target of experiment [11] is N2 neuraminidase from H3N2 A/Tanzania/205/2010 (Influenza A virus A/Tanzania/205/2010 (H3N2)). The experiment is described as follows: SPR; NA-5. The arrangement: unit not given beside the values.
Experiment [12] addresses N2 neuraminidase from A/South Australia/34/2019 (Influenza A virus A/South Australia/34/2019). The experiment is described as follows: SPR; NA-17. The arrangement: unit not given beside the values.
The target in experiment [13] is N2 A/Hong_Kong/2671/2019 (82-469) (Influenza A virus). The experiment is described as follows: SPR; NA-18. On the set-up: unit not given beside the values.
The target in experiment [14] is N2 neuraminidase from H3N2 A/Tanzania/205/2010 (Influenza A virus A/Tanzania/205/2010 (H3N2)). The experiment is described as follows: SPR, 1:1 binding; NA-5 "-glyc245".
Experiment [15] concerns the target N2 neuraminidase from A/South Australia/34/2019 (Influenza A virus A/South Australia/34/2019). The experiment is described as follows: SPR, 1:1 binding; NA-17 "+glyc245".
The target of experiment [16] is N2 A/Hong_Kong/2671/2019 (82-469) (Influenza A virus). The experiment is described as follows: SPR, 1:1 binding; NA-18 "+glyc245".
Experiment [17] addresses N9 NA (FIGS. 96A-96C). The experiment is described as follows: Bio-Layer Interferometry (BLI). For orientation: In BLI a coated tip is dipped into the sample, and binding shifts an interference pattern.
Experiment [18] concerns the target N9 NA (FIGS. 96A-96C). The experiment is described as follows: Bio-Layer Interferometry (BLI); printed as ka.
In experiment [19] the target is N9 NA (FIGS. 96A-96C). Kind of experiment: Bio-Layer Interferometry (BLI); printed as kdis.

B1: FNI9-v4.1 (antibody, V domains shown)
VH: QVHLVQSGAEVKEPGSSVTVSCKASGGSFSNQAISWVRQAPGQGLEWMGGIFPISGTPTSAQRFQGRVTFTADESTTTVYMDLSSLRSDDTAVYYCARAGSDYFNRDLGWENYYFASWGQGTLVTVSS
VL: EIVMTQSPATLSLSSGERATLSCRASRSVSSNLAWYQQKPGQAPRLLIYDASTRATGFSARFAGSGSGTEFTLTISSLQSEDSAIYYCQQYNNWPPWTFGQGTKVEIK
Take B1: the fold-change in affinity compared to FNI9-v1.1 in experiment [1] was 1.76; in experiment [2], 1.31; in [3], 1.06; in experiment [4] it was 1.48; in experiment [5], 1.24; in experiment [6], 0.78. The fold-change in affinity compared to FNI9-v1.1 amounted to 1.44 in [7], 1.06 in [8], 1.85 in [9] and 1.3 in experiment [10].

B2: Fab FNI9-v4.1 (Fab, V domains shown)
VH: QVHLVQSGAEVKEPGSSVTVSCKASGGSFSNQAISWVRQAPGQGLEWMGGIFPISGTPTSAQRFQGRVTFTADESTTTVYMDLSSLRSDDTAVYYCARAGSDYFNRDLGWENYYFASWGQGTLVTVSS
VL: EIVMTQSPATLSLSSGERATLSCRASRSVSSNLAWYQQKPGQAPRLLIYDASTRATGFSARFAGSGSGTEFTLTISSLQSEDSAIYYCQQYNNWPPWTFGQGTKVEIK
Consider B2, for which the KD compared to v1.1 in experiment [11] came out at 1.63; in [12], 1.04; in [13], 1.91. Also, the Kd stood at 5.35 nM in [14], 133 nM in [15] and 19.9 nM in [16].

B3: FNI9-v9.1 (antibody, V domains shown)
VH: QVHLVQSGAEVKEPGSSVTVSCKASGGSFNNQAISWVRQAPGQGLEWMGGIFPISGTATSAQRFQGRVTITADESTTTVYMDLSSLRSDDTAVYYCARAGSDYFNRDLGWENYYFASWGQGTLVTVSS
VL: EIVMTQSPATLSLSSGERATLSCRASRSVSSNLAWYQQKPGQAPRLLIYDASTRATGFSARFAGSGSGTEFTLTISSLQSEDSAIYYCQQYNNWPPWTFGQGTKVEIK
B3: the fold-change in affinity compared to FNI9-v1.1 is 0.81 in experiment [1]; 8.43 in experiment [2]; 0.93 in experiment [3]; 1.59 in experiment [4]; 0.92 in [5]; 0.81 in experiment [6]. Moreover, the fold-change in affinity compared to FNI9-v1.1 worked out at 1.53 in experiment [7], 0.93 in [8], 1.15 in experiment [9] and 2.99 in experiment [10]. Further, the dissociation constant (Kd) with N9 NA (FIGS. 96A-96C) [17] was 0.19 nM. The molecule also gave an on-rate (kon) with N9 NA (FIGS. 96A-96C) [18] of 456000 M⁻¹ s⁻¹. This molecule yielded a dissociation rate constant (koff) with N9 NA (FIGS. 96A-96C) [19] of 8.66e-05 s⁻¹.

B4: FNI9-v8.1 (antibody, V domains shown)
VH: QVHLVQSGAEVKEPGSSVTVSCKASGGTFNNQAISWVRQAPGQGLEWMGGIFPISGTPTSAQRFQGRVTFTADESTTTVYMDLSSLRSDDTAVYYCARAGSDYFNRDLGWENYYFASWGQGTLVTVSS
VL: EIVMTQSPATLSLSSGERATLSCRASRSVSSNLAWYQQKPGQAPRLLIYDASTRATGFSARFAGSGSGTEFTLTISSLQSEDSAIYYCQQYNNWPPWTFGQGTKVEIK
As for B4, the fold-change in affinity compared to FNI9-v1.1 in experiment [1] was determined as 0.98; in experiment [2] it was 1.1; in [3], 1.98; in experiment [4] it was 1.03; in experiment [5], 1.17; in [6], 0.92. The fold-change in affinity compared to FNI9-v1.1 in experiment [7] stood at 1.35; in experiment [8], 0.98; in [9] it was 0.4; in experiment [10], 1.2. In the experiment with N9 NA (FIGS. 96A-96C) [17], this molecule gave an equilibrium dissociation constant (Kd) of less than 0.001 nM. In addition, in the experiment with N9 NA (FIGS. 96A-96C) [18], the kon stood at 463000 M⁻¹ s⁻¹. In the experiment with N9 NA (FIGS. 96A-96C) [19], this molecule gave a koff of less than 1e-07 s⁻¹.

B5: Fab FNI9-v8.1 (Fab, V domains shown)
VH: QVHLVQSGAEVKEPGSSVTVSCKASGGTFNNQAISWVRQAPGQGLEWMGGIFPISGTPTSAQRFQGRVTFTADESTTTVYMDLSSLRSDDTAVYYCARAGSDYFNRDLGWENYYFASWGQGTLVTVSS
VL: EIVMTQSPATLSLSSGERATLSCRASRSVSSNLAWYQQKPGQAPRLLIYDASTRATGFSARFAGSGSGTEFTLTISSLQSEDSAIYYCQQYNNWPPWTFGQGTKVEIK
For the molecule B5, the figures for the KD compared to v1.1 in experiment [11], in experiment [12] and in experiment [13] were 0.78, 0.78 and 0.83, respectively. In addition, the Kd stood at 2.57 nM in experiment [14], 99.5 nM in experiment [15] and 8.64 nM in [16].

Values taken from patent publication US20260184814A1, “BROADLY NE[…] INFLUENZA NEURAMINIDASE” (priority 2022, published 2026).
